The record followed here is US20260151494A1.

B1: CD71-binding FN3 domain of SEQ ID NO: 104 (designed binder, not shown: small tags and cut ends)
chain: MLPAPKNLVVSRVTEDSARLSWTAPDAAFDSFFIGYLEPQPPGEAIHLIVPGSERSYDLTGQKPGTEYNVTIQGVKGGFPSDPLVASFTT
B2: CD71-binding FN3 domain of SEQ ID NO: 107 (designed binder, not shown: small tags and cut ends)
chain: MLPAPKNLVVSRVTEDSARLSWTAPDAAFDSFFIGYLEPQPPGEAIGLQVPGSERSYDLTGLKPGTEYNVTIQGVKGGFPSMPLSAIFTT
B3: CD71-binding FN3 domain of SEQ ID NO: 111 (designed binder, not shown: small tags and cut ends)
chain: MLPAPKNLVVSRVTEDSARLSWTAPDAAFDSFFIGYLEPQPPGEAISLWVPGSERSYDLTGLKPGTEYNVTIQGVKGGFPSIPLWAIFTT
B4: CD71-binding FN3 domain of SEQ ID NO: 112 (designed binder, not shown: small tags and cut ends)
chain: MLPAPKNLVVSRVTEDSARLSWTAPDAAFDSFFIGYLEPQPPGEAIDLWVPGSERSYDLTGLKPGTEYNVTIQGVKGGFPSMPLSAIFTT
B5: CD71-binding FN3 domain of SEQ ID NO: 113 (designed binder, not shown: small tags and cut ends)
chain: MLPAPKNLVVSRVTEDSARLSWTAPDAAFDSFFIGYLEPQPPGEAIYLLVPGSERSYDLTGLKPGTEYNVTIQGVKGGFPSDPLSAIFTT
B6: CD71-binding FN3 domain of SEQ ID NO: 115 (designed binder, not shown: small tags and cut ends)
chain: MLPAPKNLVVSRVTEDSARLSWTAPDAAFDSFFIGYLEPQPPGEAIDLYVPGSERSYDLTGLKPGIEYNVTIQGVKGGFPSLPLQAHFTT
B7: CD71-binding FN3 domain of SEQ ID NO: 109 (designed binder, not shown: small tags and cut ends)
chain: MLPAPKNLVVSRVTEDSARLSWTAPDAAFDSFFIGYLEPQPPGEAIILHVPGSERSYDLTGLKPGTEYNVTIQGVKGGFPSLPLNANFTT
B8: CD71-binding FN3 domain of SEQ ID NO: 105 (designed binder, not shown: small tags and cut ends)
chain: MLPAPKNLVVSRVTEDSARLSWTAPDAAFDSFHIVYHEPRPSGEAIWLWVPGSERSYDLTGLKPGTEYEVGIVSVKGGDLSVPLSAIFTT
B9: CD71-binding FN3 domain of SEQ ID NO: 114 (designed binder, not shown: small tags and cut ends)
chain: MLPAPKNLVVSRVTEDSARLSWTAPDAAFDSFHIVYHEPRPSGEAIWLFVPGSERSYDLTGLKPGTEYEVGIVSVKGGDLSVPLSAIFTT
B10: CD71-binding FN3 domain of SEQ ID NO: 110 (designed binder, not shown: small tags and cut ends)
chain: MLPAPKNLVVSRVTEDSARLSWTAPDAAFDSFHIVYHEPRPSGEAIYLEVPGSERSYDLTGLKPGTEYEVGIVSVKGGDLSVPLRAHFTT
B11: CD71-binding FN3 domain of SEQ ID NO: 103 (designed binder, not shown: small tags and cut ends)
chain: MLPAPKNLVVSRVTEDSARLSWTAPDAAFDSFYIAYAEPRPDGEAIILGVPGSERSYDLTGLKPGTEYSVLIHGVKGGLLSSPLSAYSTT
B12: CD71-binding FN3 domain of SEQ ID NO: 108 (designed binder, not shown: small tags and cut ends)
chain: MLPAPKNLVVSRVTEDSARLSWTAPDAAFDSFYIAYAEPRPDGEAILLQVPGSERSYDLTGLKPGTEYSVLIHGVKGGLLSSPLVAKFTT
B13: CD71-binding FN3 domain of SEQ ID NO: 116 (designed binder, not shown: small tags and cut ends)
chain: MLPAPKNLVVSRVTEDSARLSWTAPDAAFDSFYIAYAEPRPDGEAILLLVPGSERSYDLTGLKPGTEYSVLIHGVKGGLLSSPLIAGFTT
B14: CD71-binding FN3 domain of SEQ ID NO: 106 (designed binder, not shown: small tags and cut ends)
chain: MLPAPKNLVVSRVTEDSARLSWTAPDAVFDSFYIAYAEPRPDGEAIGLYVPGSERSYDLTGLKPGTEYSVLIHGVKGGLLSSPLTASFTT
B15: CD71-binding FN3 domain of SEQ ID NO: 334 (designed binder, not shown: small tags and cut ends)
chain: MSLPAPKNLVVSRVTEDSARLSWTAPDAAFDSFEIAYQELSLWGEAIVLTVPGSERSYDLTGLKPGTEYWVQIGGVKGGIWSSPLVASFTT
B16: CD71-binding FN3 domain of SEQ ID NO: 338 (designed binder, not shown: small tags and cut ends)
chain: MSLPAPKNLVVSRVTEDSARLSWTAPDAAFDSFEIGYFENLYLGEAIVLTVPGSERSYDLTGLKPGTEYCVYICGVKGGRDSMPLSAIFTT
B17: CD71-binding FN3 domain of SEQ ID NO: 344 (designed binder, not shown: small tags and cut ends)
chain: MSLPAPKNLFVSRVTEDSARLSWTAPDAAFDSFEIGYWENAYKGEAIVLTVPGSERSYDLTGLKPGTEYWVQIGGVKGGNWSAPLSAIFTT
B18: CD71-binding FN3 domain of SEQ ID NO: 345 (designed binder, not shown: small tags and cut ends)
chain: MSLPAPKNLVVSRVTEDSAHLSWTAPDAAFDSFEIGYFENDYFGEAIVLTVPGSERSYDLTGLKPGTEYVVFIGGVKGGKWSAPLSAIFTT
B19: CD71-binding FN3 domain of SEQ ID NO: 339 (designed binder, not shown: small tags and cut ends)
chain: MSLPAPKNLVVSRVTEDSARLSWTAPDAAFDSFEIGYWEMSYYGEAIVLTVPGSERSYDLTGLKPGTEYGVSIGGVKGGRWSLPLSAIFTT
B20: CD71-binding FN3 domain of SEQ ID NO: 340 (designed binder, not shown: small tags and cut ends)
chain: MSLPAPKNLVVSRVTEDSSRLSWTAPDAAFDSFEIGYFENLYLGEAIVLTVPGSERSYDLTGLKPGTEYWVQIGGVKGGNWSAPLSAIFTT
B21: CD71-binding FN3 domain of SEQ ID NO: 336 (designed binder, not shown: small tags and cut ends)
chain: MSLPAPKNLVVSRVTEDSARLSWTAPDAAFDSFNIMYHEHYDNGEAIVLTVPGSERSYDLTGLKPGTEYSVVINGVKGGPHSAPLSAIFTT
B22: CD71-binding FN3 domain of SEQ ID NO: 335 (designed binder, not shown: small tags and cut ends)
chain: MSLPAPKNLVVSRVTEDSARLSWTAPDAAFDSFFIGYLEPQPPGEAIDLYVPGSERSYDLTGLKPGTEYNVTIQGVKGGFPSLPLVATFTT
B23: CD71-binding FN3 domain of SEQ ID NO: 342 (designed binder, not shown: small tags and cut ends)
chain: MSLPAPKNLVVSRVTEDSARLSWTAPDAAFDSFFIGYLEPQPPGEAIVLTVPGSERSYDLTGLKPGTEYNVTIQGVKGGFPSEPLIANFTT
B24: CD71-binding FN3 domain of SEQ ID NO: 343 (designed binder, not shown: small tags and cut ends)
chain: MSLPAPKNLVVSRVTEDSARLSWTAPDAAFDSFFIGYLEPQPPGEAIALWVPGSERSYDLTGLKPGTEYNVTIQGVKGGFPSEPLVATFTT
B25: CD71-binding FN3 domain of SEQ ID NO: 337 (designed binder, not shown: small tags and cut ends)
chain: MSLPAPKNLVVSRVTEDSARLSWTAPDAAFDSFFIGYLEPQPPGEAIHLYVPGSERSYDLTGLKPGTEYNVTIQGVKGGFPSIPLIASFTT
B26: CD71-binding FN3 domain of SEQ ID NO: 341 (designed binder, not shown: small tags and cut ends)
chain: MSLPAPKNLVVSRVTEDSARLSWTAPDAAFDSFFIGYLEPQPPGEAIELYVPGSERSYDLTGLKPGTEYNVTIQGVKGGFPSLPLVAIFTT

The target of the first experiment is human serum albumin (human) (UniProt P02768). Put plainly: primary ELISA of colonies, luminescence; negative control antigen.
human serum albumin (human), sequence (P02768 25-609 limits assumed): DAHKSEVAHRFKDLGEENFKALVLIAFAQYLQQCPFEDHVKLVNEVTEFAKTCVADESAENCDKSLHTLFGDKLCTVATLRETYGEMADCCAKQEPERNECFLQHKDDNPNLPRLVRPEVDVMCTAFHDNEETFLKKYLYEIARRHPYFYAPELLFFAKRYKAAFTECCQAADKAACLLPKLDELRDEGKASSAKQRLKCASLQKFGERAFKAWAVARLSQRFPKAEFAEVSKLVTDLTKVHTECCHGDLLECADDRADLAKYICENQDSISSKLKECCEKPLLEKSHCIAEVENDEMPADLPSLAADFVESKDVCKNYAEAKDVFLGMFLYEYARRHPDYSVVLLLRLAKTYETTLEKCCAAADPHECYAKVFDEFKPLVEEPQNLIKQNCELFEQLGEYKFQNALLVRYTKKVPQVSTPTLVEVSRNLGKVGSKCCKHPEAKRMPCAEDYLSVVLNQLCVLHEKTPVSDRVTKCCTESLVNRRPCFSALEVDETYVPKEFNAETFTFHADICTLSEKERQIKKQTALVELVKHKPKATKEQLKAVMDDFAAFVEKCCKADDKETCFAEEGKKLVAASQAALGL
Take B1: the HSA, RLU worked out at 29400 RLU.

On to B2, for which the HSA, RLU was determined as 3250 RLU. The same measure, in the same setting: to B3 belongs 2600 RLU; to B4, 2650 RLU; to B5, 2800 RLU. For the molecule B6, the HSA, RLU came to 5200 RLU.

Consider B7, for which the HSA, RLU amounted to 3250 RLU. Same read-out and setting: under B8 stands 3000 RLU.

Molecule B9 showed an HSA, RLU of 11600 RLU. Still for that read-out and setting: under B10 stands 2500 RLU; under B11, 18200 RLU. Take B12: the HSA, RLU came out at 3350 RLU. On the same count and under the same terms, under B13 stands 2750 RLU; under B14, 2550 RLU.

A further experiment shares this target. Put plainly: primary ELISA screen, HSA negative control.
In the case of B15, the RLU came to 14400 RLU. Same read-out and setting: under B16 stands 40200 RLU. On to B17, for which the RLU was 36900 RLU. For B18, the RLU turned out to be 23600 RLU.

Take B19: the RLU was determined as 7050 RLU. Still for that read-out and setting: under B20 stands 28300 RLU; under B21, 16800 RLU; under B22, 57300 RLU.

The molecule B23 displayed an RLU of 425000 RLU. The same measure, in the same setting: under B24 stands 30400 RLU; under B25, 17200 RLU. Same read-out and setting: under B26 stands 58000 RLU.
